The text below walks through data of patent US20210340196A1 (UNIVERSIDAD DE ZARAGOZA, published 2021).

In this assay the target is T1, carcinoembryonic antigen (CEA), purified antigen (UniProt P06731 35-685).
T1 construct: Purified CEA coated on ELISA wells; also called CEA antigen
T1 sequence (looked up): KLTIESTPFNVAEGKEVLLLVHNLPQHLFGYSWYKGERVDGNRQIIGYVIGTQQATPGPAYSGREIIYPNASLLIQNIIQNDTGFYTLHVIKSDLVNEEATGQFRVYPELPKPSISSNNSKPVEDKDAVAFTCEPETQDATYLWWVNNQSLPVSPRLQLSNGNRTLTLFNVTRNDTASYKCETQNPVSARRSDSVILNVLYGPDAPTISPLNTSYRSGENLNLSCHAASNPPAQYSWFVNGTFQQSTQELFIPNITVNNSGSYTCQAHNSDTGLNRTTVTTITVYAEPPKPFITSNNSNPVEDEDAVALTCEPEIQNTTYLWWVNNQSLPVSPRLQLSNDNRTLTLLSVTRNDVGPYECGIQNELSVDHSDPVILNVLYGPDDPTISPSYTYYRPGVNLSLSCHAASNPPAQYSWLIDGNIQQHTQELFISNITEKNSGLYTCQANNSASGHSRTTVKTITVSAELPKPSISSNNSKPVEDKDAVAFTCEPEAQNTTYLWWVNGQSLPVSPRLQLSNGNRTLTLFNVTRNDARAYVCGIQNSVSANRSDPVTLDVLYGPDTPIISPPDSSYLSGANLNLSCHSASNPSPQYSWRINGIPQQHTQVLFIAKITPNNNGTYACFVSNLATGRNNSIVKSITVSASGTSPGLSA
Description: ELISA, 200 ng CEA coated per well, 500 ng scFv MFE23 as positive control, anti-His tag antibody + HRP anti-mouse IgG, OPD read at 492 nm. The protocol: FIG. 7. ELISA performed with 200 ng of CEA per well (left overnight at 4° C.), PBS (negative control), 500 ng of recombinant scFv MFE23 (positive control), and the P. pastoris supernatant transformed with pPICZαC-Chimera were then added after inducing expression with methanol. To develop the binding of scFvs to the CEA antigen, an anti-histidine tag antibody and a peroxidase-conjugated goat anti-mouse IgG secondary antibody were used. The peroxidase substrate was OPD, producing a yellow-orange product that can be detected at 492 nm.
An ELISA was performed using 200 ng of CEA per well, which was incubated overnight at 4° C., PBS (negative control), 500 ng of the recombinant scFv MFE23 (positive control), and the P. pastoris supernatant transformed with pPICZαC-Chimera after inducing expression with methanol were then added. To develop the binding of scFvs to the CEA antigen, an anti-histidine tag antibody and a peroxidase-conjugated goat anti-mouse IgG secondary antibody were used. The peroxidase substrate was OPD, producing a yellow-orange product that can be detected at 492 nm.

B1: recombinant scFv MFE23 (scFv)
scFv: QVKLQQSGAELVRSGTSVKLSCTASGFNIKDSYMHWLRQGPEQGLEWIGWIDPENGDTEYAPKFQGKATFTTDTSSNTAYLQLSSLTSEDTAVYYCNEGTPTGPYYFDYWGQGTTVTVSSGGGGSGGGGSGGGGSENVLTQSPAIMSASPGEKVTITCSASSSVSYMHWFQQKPGTSPKLWIYSTSNLASGVPARFSGSGSGTSYSLTISRMEAEDAATYYCQQRSSYPLTFGAGTKLELKR
notes: Positive control in the ELISA, 500 ng; also called anti-CEA scFv MFE23
In the case of B1, the binding result is on record as “binds”.
